Data published in patent US20210388105A1 (ELPISCIENCE SUZHOU BIOPHARMA, published 2021).

T1: human CD39 (full length, on cells) (human, UniProt P49961 1-510)
T1 construct: Recombinant on CHOK1-hCD39 cells or natural on SK-MEL-28, SK-MEL-5 and MOLP-8 cells; the cell line is named under assay; also called hCD39; ENTPD1
T1 sequence: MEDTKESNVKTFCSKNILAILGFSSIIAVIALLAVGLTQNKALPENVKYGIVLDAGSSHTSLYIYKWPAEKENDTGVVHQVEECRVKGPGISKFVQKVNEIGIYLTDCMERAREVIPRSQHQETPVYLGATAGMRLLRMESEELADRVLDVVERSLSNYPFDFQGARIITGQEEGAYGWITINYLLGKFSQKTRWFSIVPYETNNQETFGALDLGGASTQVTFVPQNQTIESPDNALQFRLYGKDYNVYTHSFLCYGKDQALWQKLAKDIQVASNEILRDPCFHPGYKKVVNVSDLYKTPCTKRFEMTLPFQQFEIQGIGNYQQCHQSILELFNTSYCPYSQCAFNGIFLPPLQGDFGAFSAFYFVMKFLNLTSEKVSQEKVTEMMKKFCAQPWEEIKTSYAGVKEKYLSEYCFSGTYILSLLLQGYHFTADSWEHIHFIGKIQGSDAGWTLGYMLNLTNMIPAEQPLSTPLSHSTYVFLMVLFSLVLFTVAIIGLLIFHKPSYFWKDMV

T2: human CD39 (protein; form not stated) (human, UniProt P49961 38-478, limits assumed)
T2 construct: also called ENTPD1; ENTPDase 1
T2 sequence: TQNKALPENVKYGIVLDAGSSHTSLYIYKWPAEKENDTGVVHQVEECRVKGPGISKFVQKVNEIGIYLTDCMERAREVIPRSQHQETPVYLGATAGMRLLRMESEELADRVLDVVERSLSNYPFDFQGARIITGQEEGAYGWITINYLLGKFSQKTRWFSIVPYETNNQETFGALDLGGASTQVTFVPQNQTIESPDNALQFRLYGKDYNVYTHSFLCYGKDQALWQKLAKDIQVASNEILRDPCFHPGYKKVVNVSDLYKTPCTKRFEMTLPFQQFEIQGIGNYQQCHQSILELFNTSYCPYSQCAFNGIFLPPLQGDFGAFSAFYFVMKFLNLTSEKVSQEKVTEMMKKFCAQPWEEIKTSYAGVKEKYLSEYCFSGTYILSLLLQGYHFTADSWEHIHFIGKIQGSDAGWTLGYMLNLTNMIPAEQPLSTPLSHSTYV


Key:
[1] = target: T1, human CD39 (full length, on cells); assay: FACS, MOLP-8 cells
Experimental: Similarly, human CD39 expressing cells SK-MEL-5, SK-MEL-28 or MOLP-8, were incubated with a gradient concentration of anti-CD39 antibodies for 30 minutes at 4° C. Cells were washed 3 times using FACS buffer and next incubated with fluorescence labelled secondary antibody (goat-anti-mouse IgG or goat anti-human IgG) for 30 minutes at 4° C. Cells were washed 3 times and then re-suspended in FACS buffer and analyzed by flow cytometry analysis on BD Celesta. Data plotted and analyzed using GraphPad Prism 8.02.
The binding affinity of the humanized antibodies for c23 was determined by FACS, using similar methods as described in Example 3.2. The c23 humanized antibody clones showing good binding affinity are listed in below Table 19 and Table 20, and also shown in FIGS. 7A, 7B and FIG. 8. EC₅₀ is the concentration of the indicated antibodies to reach 50% of the signal in this assay.

[2] = target: T1, human CD39 (full length, on cells); assay: cell-based or functional assay
[3] = target: T2, human CD39 (protein; form not stated); assay: Octet (BLI), antibody on sensor, CD39 in solution
Experimental: Briefly, the antibodies were coupled on sensors and then the sensors were dipped into CD39 gradients (start at 200 nM, with 2-fold dilution and totally 8 doses). Their binding responses were measured in real-time and results were fit globally.

Binder	EC50 [1] [nM]	ATPase inhibition IC50 on SK-MEL-28 cells [2] [nM]	Kd [3] [nM]	koff [3] [s⁻¹]	kon [3] [M⁻¹ s⁻¹]
hu23.H2L2 (antibody, V domains shown, humanized c23) VH: QVQLVQSGAEVKKPGASVKVSCKASGYNLKDTFLHWVRQAPGQGLEWMGRIDPANGNIKYDPKFQGRVTITADTSASTAYMELSSLRSEDTAVYYCANSPYYYGSGYRIFDVWGQGTTVTVSS VL: EIVLTQSPATLSLSPGERATLSCSAFSSVNYMHWYQQKPGQAPRLLIYTTSNLASGIPARFSGSGSGTDYTLTISSLEPEDFAVYYCQQRSTYPFTFGQGTKLEIK	0.979	0.767			
hu23.H1L2 (antibody, V domains shown, humanized c23) VH: QVQLVQSGAEVKKPGASVKVSCKASGYNLKDTFLHWVRQAPGQRLEWMGRIDPANGNIKYDPKFQGRVTITRDTSASTAYMELSSLRSEDTAVYYCARSPYYYGSGYRIFDVWGQGTTVTVSS VL: EIVLTQSPATLSLSPGERATLSCSAFSSVNYMHWYQQKPGQAPRLLIYTTSNLASGIPARFSGSGSGTDYTLTISSLEPEDFAVYYCQQRSTYPFTFGQGTKLEIK	1.16	0.964			
hu23.H1L4 (antibody, V domains shown, humanized c23) VH: QVQLVQSGAEVKKPGASVKVSCKASGYNLKDTFLHWVRQAPGQRLEWMGRIDPANGNIKYDPKFQGRVTITRDTSASTAYMELSSLRSEDTAVYYCARSPYYYGSGYRIFDVWGQGTTVTVSS VL: EIVLTQSPATLSASPGERVTISCSAFSSVNYMHWYQQKPGQAPRLLIYTTSNLASGIPARFSGSGSGTDYTLTISSMEPEDFAVYYCQQRSTYPFTFGQGTKLEIK	1.5	0.59			
hu23.H4L4 (antibody, V domains shown, humanized c23) VH: QVQLVQSGAEVKKPGASVKLSCKASGYNLKDTFLHWVKQAPGQGLEWIGRIDPANGNIKYDPKFQGRATLTADTSASTAYLELSSLRSEDTAVYYCANSPYYYGSGYRIFDVWGQGTTVTVSS VL: EIVLTQSPATLSASPGERVTISCSAFSSVNYMHWYQQKPGQAPRLLIYTTSNLASGIPARFSGSGSGTDYTLTISSMEPEDFAVYYCQQRSTYPFTFGQGTKLEIK	1.01	0.487			
hu23.H5L6 (antibody, V domains shown, humanized c23) VH: QVQLVQSGAEVKKPGASVKVSCKASGYNLKDTFLHWVRQAPGQGLEWMGRIDPANGNIKYDPKFQGRVTITADTSANTAYMELISLRSEDTAVYYCANSPYYYGSGYRIFDVWGQGTTVTVSS VL: QIVLTQSPATLSASPGERATLSCSAFSSVNYMHWYQQKPGQAPKLLIYTTSNLASGVPTRFSGSGSGTSYTLTISSMEPEDFAVYYCQQRSTYPFTFGQGTKLEIK	0.202	0.13			
hu23.H7L1 (antibody, V domains shown, humanized c23) VH: EVQLVQSGAEVKKPGASVKLSCKASGYNLKDTFLHWVKQAPGQGLEWIGRIDPANGNIKYDPKFQGKATLTADTSANTAYLELISLRSEDTAVYYCANSPYYYGSGYRIFDVWGQGTTVTVSS VL: EIVLTQSPATLSLSPGERATLSCSAFSSVNYMHWYQQKPGQAPRLLIYTTSNLASGIPARFSGSGSGTDFTLTISSLEPEDFAVYYCQQRSTYPFTFGQGTKLEIK	0.366	0.147			
hu23.H7L5 (antibody, V domains shown, humanized c23) VH: EVQLVQSGAEVKKPGASVKLSCKASGYNLKDTFLHWVKQAPGQGLEWIGRIDPANGNIKYDPKFQGKATLTADTSANTAYLELISLRSEDTAVYYCANSPYYYGSGYRIFDVWGQGTTVTVSS VL: QIVLTQSPATLSLSPGERATLSCSAFSSVNYMHWYQQKPGQAPRLLIYTTSNLASGIPTRFSGSGSGTSYTLTISSLEPEDFAVYYCQQRSTYPFTFGQGTKLEIK	0.25	0.144			
hu23.H7L6 (antibody, V domains shown, humanized c23) VH: EVQLVQSGAEVKKPGASVKLSCKASGYNLKDTFLHWVKQAPGQGLEWIGRIDPANGNIKYDPKFQGKATLTADTSANTAYLELISLRSEDTAVYYCANSPYYYGSGYRIFDVWGQGTTVTVSS VL: QIVLTQSPATLSASPGERATLSCSAFSSVNYMHWYQQKPGQAPKLLIYTTSNLASGVPTRFSGSGSGTSYTLTISSMEPEDFAVYYCQQRSTYPFTFGQGTKLEIK	0.271	0.121			
hu14.H1L2 (antibody, V domains shown, humanized c14) VH: EVQLVESGGGLVKPGGSLRLSCAASGFTFSKYWMNWVRQAPGKGLEWVGEIRLKSNKYGTHYAESVKGRFTISRDDSKNTLYLQMNSLKTEDTAVYYCTTQLDLYWFFDVWGQGTTVTVSS VL: EIVLTQSPATLSLSPGERATLSCRASQSISDYLHWYQQKPGQSPRLLIYYASQSISGIPARFSGSGSGTDFTLTISSLEPEDFAVYFCQNGHSLPLTFGGGTKLEIK			0.839	0.000326	389000
